Test results as given in US20150299296A1 (Chugai, published 2015).
Substitutions are numbered along the chain they refer to.

T1: human FcγRIIb extracellular domain with C-terminal His tag (human, UniProt P31994 43-217)
T1 construct: extracellular domain; For crystals it was expressed with kifunensine and trimmed with Endo F1; also called FcgRIIb; FcγRIIb extracellular region
T1 sequence (looked up): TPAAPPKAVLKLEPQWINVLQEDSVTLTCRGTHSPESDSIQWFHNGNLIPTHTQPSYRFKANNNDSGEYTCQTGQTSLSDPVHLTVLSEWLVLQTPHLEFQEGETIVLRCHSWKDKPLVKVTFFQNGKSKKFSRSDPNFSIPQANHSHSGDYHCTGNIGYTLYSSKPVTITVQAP

T2: human FcγRIIa type H extracellular domain with C-terminal His tag (human, UniProt P12318 34-217)
T2 construct: extracellular domain; also called FcgRIIaH; FcγRIIa H
T2 sequence (looked up): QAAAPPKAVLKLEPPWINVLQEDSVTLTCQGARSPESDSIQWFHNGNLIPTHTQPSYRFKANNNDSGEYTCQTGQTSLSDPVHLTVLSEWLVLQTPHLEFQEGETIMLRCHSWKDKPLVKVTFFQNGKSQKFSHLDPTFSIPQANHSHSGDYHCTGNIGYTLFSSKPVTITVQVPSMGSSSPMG

B1: IL6R-BP423/IL6R-L (antibody, human IgG1, kappa)
heavy: QVQLQESGPGLVKPSETLSLTCAVSGHSISHDHAWSWVRQPPGEGLEWIGFISYSGITNYNPSLQGRVTISRDNSKNTLYLQMNSLRAEDTAVYYCARSLARTTAMDYWGEGTLVTVSSASTKGPSVFPLAPSSKSTSGGTAALGCLVKDYFPEPVTVSWNSGALTSGVHTFPAVLQSSGLYSLSSVVTVPSSSLGTQTYICNVNHKPSNTKVDKKVEPKSCDKTHTCPPCPAPDLLGDDSVFLFPPKPKDTLMISRTPEVTCVVVDVAEEDGEVKFNWYVDGVEVHNAKTKPREEQYNSTYRVVSVLTVLHQDWLNGKEYKCKVSNKALPRPIEKTISKAKGQPREPQVYTLPPSRDELTKNQVSLTCLVKGFYPSDIAVEWESNGQPENNYKTTPPVLDSDGSFFLYSKLTVDKSRWQQGNVFSCSVMHEALHNHYTQESLSLSP
light: not shown
B2: IL6R-BP429/IL6R-L (antibody, human IgG1, kappa)
heavy: B1 heavy with V266I, A269G
light: not shown
B3: IL6R-BP437/IL6R-L (antibody, human IgG1, kappa)
heavy: B1 heavy with D235E, Y298D, I334T
light: not shown
B4: IL6R-BP192/IL6R-L (antibody, human IgG1, kappa, name in EU numbering)
heavy: B1 heavy with D239G, A269S, E270D, Y298D, R332K
light: not shown
B5: IL6R-BP213/IL6R-L (antibody, human IgG1, kappa, name in EU numbering)
heavy: B1 heavy with D239G, A269S, E270D
light: not shown
B6: IL6R-BP179/IL6R-L (antibody, human IgG1, kappa, name in EU numbering)
heavy: B1 heavy with D235E, A269S, E270H, K328A, R332K
light: not shown
B7: IL6R-BP198/IL6R-L (antibody, human IgG1, kappa, name in EU numbering)
heavy: B1 heavy with L236Y, D239G, A269S, E270D, K328A, R332K
light: not shown
B8: IL6R-BP189/IL6R-L (antibody, human IgG1, kappa, name in EU numbering)
heavy: B1 heavy with D235E, A269S, E270D, K328A, R332K
light: not shown
B9: IL6R-BP187/IL6R-L (antibody, human IgG1, kappa, name in EU numbering)
heavy: B1 heavy with D235E, L236Y, D239G, A269S, E270H, K328A, R332K
light: not shown
B10: IL6R-BP196/IL6R-L (antibody, human IgG1, kappa, name in EU numbering)
heavy: B1 heavy with D235E, L236Y, D239G, A269S, E270D, K328A, R332K
light: not shown
B11: IL6R-BP177/IL6R-L (antibody, human IgG1, kappa, name in EU numbering)
heavy: B1 heavy with L236Y, A269S, E270H, K328D, R332K
light: not shown
B12: IL6R-BP194/IL6R-L (antibody, human IgG1, kappa, name in EU numbering)
heavy: B1 heavy with L236Y, A269S, E270D, K328A, R332K
light: not shown
B13: IL6R-BP206/IL6R-L (antibody, human IgG1, kappa, name in EU numbering)
heavy: B1 heavy with D239G, A269S, E270H
light: not shown
B14: IL6R-BP209/IL6R-L (antibody, human IgG1, kappa, name in EU numbering)
heavy: B1 heavy with D235E, A269S, E270D, K328A
light: not shown
B15: IL6R-BP147/IL6R-L (antibody, human IgG1, kappa, name in EU numbering)
heavy: B1 heavy with D235E, L236Y, A269S, E270H, G273P, K328A, R332K
light: not shown
B16: IL6R-BP185/IL6R-L (antibody, human IgG1, kappa, name in EU numbering)
heavy: B1 heavy with L236Y, A269S, E270H, K328A, R332K
light: not shown
B17: IL6R-BP207/IL6R-L (antibody, human IgG1, kappa, name in EU numbering)
heavy: B1 heavy with D239G, A269S, E270H, G273P
light: not shown
B18: IL6R-BP186/IL6R-L (antibody, human IgG1, kappa, name in EU numbering)
heavy: B1 heavy with L236Y, A269S, E270H, Y298D, K328A, R332K
light: not shown
B19: IL6R-BP183/IL6R-L (antibody, human IgG1, kappa, name in EU numbering)
heavy: B1 heavy with L236Y, D239G, A269S, E270H, K328A, R332K
light: not shown
B20: IL6R-BP203/IL6R-L (antibody, human IgG1, kappa, name in EU numbering)
heavy: B1 heavy with D235E, A269S, E270H
light: not shown
B21: IL6R-BP184/IL6R-L (antibody, human IgG1, kappa, name in EU numbering)
heavy: B1 heavy with D239G, A269S, E270H, R332K
light: not shown
B22: IL6R-BP180/IL6R-L (antibody, human IgG1, kappa, name in EU numbering)
heavy: B1 heavy with D235E, A269S, E270H, R332K
light: not shown
B23: IL6R-BP149/IL6R-L (antibody, human IgG1, kappa, name in EU numbering)
heavy: B1 heavy with L236Y, A269S, E270H, G273P, Y298D, K328A, R332K
light: not shown
notes: Same printed alterations as IL6R-BP214
B24: IL6R-BP150/IL6R-L (antibody, human IgG1, kappa, name in EU numbering)
heavy: B1 heavy with D235E, L236Y, A269S, E270H, G273P, K328A
light: not shown
B25: IL6R-BP199/IL6R-L (antibody, human IgG1, kappa, name in EU numbering)
heavy: B1 heavy with D239G, A269S, E270H, G273P, K328A
light: not shown
B26: IL6R-BP148/IL6R-L (antibody, human IgG1, kappa, name in EU numbering)
heavy: B1 heavy with L236Y, A269S, E270H, G273P, K328A, R332K
light: not shown

These binders were tested against T1, human FcγRIIb extracellular domain with … (assay: SPR).

Row | Binder | binding result
1 | B1 | binds
2 | B2 | binds
3 | B3 | binds

The binders below were run against T3, human FcγRIa extracellular domain with C-terminal His tag (human, UniProt P12314 16-292) (assay: SPR; IL6R-BF648/IL6R-L=100).
T3 construct: Whole entry named; also called FcgRIa; FcgIa
T3 sequence (P12314 16-292): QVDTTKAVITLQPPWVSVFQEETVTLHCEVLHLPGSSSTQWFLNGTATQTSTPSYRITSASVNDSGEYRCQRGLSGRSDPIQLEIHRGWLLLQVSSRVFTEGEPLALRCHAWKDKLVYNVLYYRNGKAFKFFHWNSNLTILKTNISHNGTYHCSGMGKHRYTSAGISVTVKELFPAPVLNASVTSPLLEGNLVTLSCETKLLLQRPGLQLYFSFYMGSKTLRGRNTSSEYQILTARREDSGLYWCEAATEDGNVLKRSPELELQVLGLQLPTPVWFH
Procedure: (§1) IL6R-L was utilized as the common antibody L chain for all of the antibodies, the antibodies were expressed and purified according to the method of Reference Example 1, and binding to each of the FcγRs (FcγRIa, FcγRIIa type H, FcγRIIa type R, FcγRIIb, and FcγRIIIa type V) was comprehensively evaluated by the method of Reference Example 2.
(§2) Relative binding activities were calculated for the results of analyzing interactions with the respective FcγRs according to the following method.

Row | Binder | relative binding activity
4 | B4 | 109
5 | B5 | 118
6 | B6 | 39
7 | B7 | 104
8 | B8 | 56
9 | B9 | 68
10 | B10 | 89
11 | B11 | 57
12 | B12 | 69
13 | B13 | 101
14 | B14 | 68
15 | B15 | 24
16 | B16 | 47
17 | B17 | 74
18 | B18 | 43
19 | B19 | 83
20 | B20 | 35
21 | B21 | 96
22 | B22 | 29
23 | B23 | 29
24 | B24 | 30
25 | B25 | 112
26 | B26 | 33

Each binder was assayed against T2, human FcγRIIa type H extracellular … (assay: SPR; IL6R-BF648/IL6R-L=100).
Procedure: as §1, §2

Row | Binder | relative binding activity
27 | B4 | 122
28 | B5 | 123
29 | B6 | 226
30 | B7 | 188
31 | B8 | 183
32 | B9 | 205
33 | B10 | 195
34 | B11 | 409
35 | B12 | 395
36 | B13 | 123
37 | B14 | 267
38 | B15 | 582
39 | B16 | 446
40 | B17 | 103
41 | B18 | 368
42 | B19 | 191
43 | B20 | 255
44 | B21 | 131
45 | B22 | 203
46 | B23 | 401
47 | B24 | 770
48 | B25 | 116
49 | B26 | 462

Each binder was assayed against T1, human FcγRIIb extracellular domain with … (assay: SPR; IL6R-BF648/IL6R-L=100).
Procedure: as §1, §2

Row | Binder | relative binding activity
50 | B4 | 172
51 | B5 | 169
52 | B6 | 177
53 | B7 | 164
54 | B8 | 177
55 | B9 | 157
56 | B10 | 157
57 | B11 | 177
58 | B12 | 178
59 | B13 | 168
60 | B14 | 186
61 | B15 | 177
62 | B16 | 179
63 | B17 | 124
64 | B18 | 175
65 | B19 | 164
66 | B20 | 185
67 | B21 | 171
68 | B22 | 179
69 | B23 | 173
70 | B24 | 183
71 | B25 | 144
72 | B26 | 176

What follows are binders tested against T4, human FcγRIIIa type V extracellular domain with C-terminal His tag (human, UniProt P08637 17-208) (assay: SPR; IL6R-BF648/IL6R-L=100).
T4 construct: extracellular domain; also called FcgRIIIaV; FcγRIIIaV
T4 sequence (P08637 17-208 F176V): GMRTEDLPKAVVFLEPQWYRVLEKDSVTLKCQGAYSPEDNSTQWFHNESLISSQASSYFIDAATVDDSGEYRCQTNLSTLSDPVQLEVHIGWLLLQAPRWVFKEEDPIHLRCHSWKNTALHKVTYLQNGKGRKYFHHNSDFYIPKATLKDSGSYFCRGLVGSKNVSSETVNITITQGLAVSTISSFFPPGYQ
Procedure: as §1, §2

Row | Binder | relative binding activity
73 | B4 | 118
74 | B5 | 100
75 | B6 | 125
76 | B7 | 157
77 | B8 | 141
78 | B9 | 124
79 | B10 | 137
80 | B11 | 186
81 | B12 | 249
82 | B13 | 92
83 | B14 | 153
84 | B15 | 209
85 | B16 | 191
86 | B17 | 97
87 | B18 | 143
88 | B19 | 113
89 | B20 | 88
90 | B21 | 106
91 | B22 | 100
92 | B23 | 186
93 | B24 | 204
94 | B25 | 103
95 | B26 | 227
